Assay results as given in US20240011000.

Legend:
[1] = test system: Bst-LF (DNA polymerase I large fragment) (Geobacillus stearothermophilus); conditions: RT-LAMP-OSD, G6D buffer, 65 C
[2] = test system: Br512 (villin headpiece HP47-Bst-LF fusion DNA polymerase) (Geobacillus stearothermophilus / Gallus gallus fusion)
Bst 2.0 DNA polymerase = Bst 2.0 DNA polymerase (UniProt P52026); conditions: RT-LAMP-OSD, 300 genomes, isothermal buffer, 65 C
Chain of UniProt P52026 (P52026 297-876): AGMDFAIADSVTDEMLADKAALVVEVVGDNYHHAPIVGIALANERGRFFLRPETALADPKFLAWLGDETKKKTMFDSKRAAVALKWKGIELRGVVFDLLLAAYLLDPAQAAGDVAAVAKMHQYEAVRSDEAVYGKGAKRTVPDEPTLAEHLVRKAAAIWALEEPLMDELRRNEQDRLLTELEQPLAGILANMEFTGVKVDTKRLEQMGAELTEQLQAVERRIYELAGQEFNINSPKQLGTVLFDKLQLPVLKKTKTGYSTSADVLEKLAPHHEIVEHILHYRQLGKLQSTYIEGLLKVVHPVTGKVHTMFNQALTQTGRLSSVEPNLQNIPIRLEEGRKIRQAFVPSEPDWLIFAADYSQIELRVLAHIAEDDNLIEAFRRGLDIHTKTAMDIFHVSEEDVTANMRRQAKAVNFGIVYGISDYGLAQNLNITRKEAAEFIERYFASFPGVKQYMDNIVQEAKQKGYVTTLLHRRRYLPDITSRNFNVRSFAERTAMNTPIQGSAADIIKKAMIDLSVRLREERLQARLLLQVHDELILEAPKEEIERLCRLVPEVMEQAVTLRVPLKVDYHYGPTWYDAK

Row | Substance | activity (% assays positive) [1] | activity (% assays positive) [2] | activity (% assays positive) (Bst 2.0 DNA polymerase)
1 | SARS-CoV-2 RNA, NB (N gene) target | 16 | 80 | 25
2 | SARS-CoV-2 RNA, 6-Lamb target | 33 | 100 | 75
